# Laboratory results published in US10487337B2, “Methods for monocot plant improvement” (Agresearch Limited, priority 2014, dated 2019).
# B1: PPD1: PEAPOD 1 protein of Arabidopsis thaliana, SEQ ID NO: 1 (protein, listed as Arabidopsis thaliana)
# chain: MDVGVSPAKSILAKPLKLLTEEDISQLTREDCRKFLKDKGMRRPSWNKSQAIQQVLSLKALYEPGDDSGAGIFRKILVSQPVNPPRVTTTLIEPSNELEACGRVSYPEDNGACHRMDSPRSAEFSGGSGHFVSEKDGHKTTISPRSPAETSELVGQMTIFYSGKVNVYDGIPPEKARSIMHFAANPIDLPENGIFASSRMISKLISKEKMMELPQKGLEKANSSRDSGMEGQANRKVSLQRYREKRKDRKFSKAKKCPGVASSSLEMFLNCQPRMKAAYSQNLGCTGSPLHSQSPESQTKSPNLSVDLNSEGI
# How the values were obtained:
# Arabidopsis Δppd mutant = assay: Complementation of the Arabidopsis Δppd mutant leaf phenotype; format: in vivo; conditions: CaMV35s promoter, Arabidopsis thaliana ecotype Landsberg erecta, FIG. 13
# Description: The functionality of any PEAPOD sequence can be confirmed by complementation of the Arabidopsis Δppd mutant leaf phenotype. Complementation of the Arabidopsis Δppd mutant leaf phenotype was first used to identify the Arabidopsis PPD gene (White 2006). This was seen by a restoration of the wild type flattened leaf phenotype and normal rosette shape as opposed to the domed leaf and the twisting of the rosette to a “propeller” phenotype.
# Arabidopsis thaliana (L.) Heynh ecotype Ler can be used as wild-type (WT). The Δppd loss of function deletion mutant (with PPD1 and PPD2 deleted) is as previously described in White 2006, PNAS 103, 13238-13243.
# Plants are grown in a temperature-controlled glasshouse at a continuous 21° C. or in a controlled environment cabinet at 23° C. in 16-h light_8-h dark cycles.
# Constructs above can be transformed into Arabidopsis by the floral dip infiltration method (Clough and Bent, 1998, Plant J 16, 735-43). The Δppd line is transformed to express the PPD polypeptides by standard techniques. Transgenic plants are confirmed by standard PCR analysis techniques with a combination of transgene-specific and T-DNA primers.
# Complementation of the Δppd line to produce a wild-type leaf and rosette phenotype in T1 seedlings (the off-spring of the infiltrated plant) confirms PEAPOD functionality of the introduced gene, which can be shown in photographs.
# ryegrass plants = assay: Root biomass analysis of grass transformants; format: in vivo; conditions: root growth beyond the grow bag, approximately 6 weeks
# Protocol: (§1) An equal number (typically 4-10) of tillers were taken from WT and ryegrass plants transformed with Arabidopsis PPD under one of three root promoters. Tillers were planted into plastic grow bags containing potting mix and pruned to be of equal height. […] The increase in root biomass was quantified removing the attached above ground portion (leaves and shoots) and drying the roots at 65° C. for 48 hr then weighing the dry weights (Tables 3 and 4)
# as §1, with “a constitutive promoter.” for “one of three root promoters.”, “(Table 5).” for “(Tables 3 and 4)”
molecule,measurement,setting,value
B1,PEAPOD functionality by complementation of the Δppd deletion mutant,Arabidopsis Δppd mutant,functionally equivalent
same,root biomass/growth/length/branching compared to WT plants,ryegrass plants; constitutive promoter,increase in root biomass/growth/length/branching
same,root biomass/growth/length/branching compared to WT plants,ryegrass plants; root promoter,increase in root biomass/growth/length/branching
